Experimental data from publication PMC6499997, “SGIP1α functions as a selective endocytic adaptor for the internalization of synaptotagmin 1 at synapses” (Molecular Brain, 2019).

Target: T1, Recombinant human GST-Syt1-C2AB domain (human, UniProt P21579 81-422)
T1 construct: human synaptotagmin 1, cytoplasmic C2AB domains (C2A and C2B); Construct was a gift (Dr. Namgi Lee); also called C2AB fusion protein; GST-fused cytoplasmic (C2AB) domains of Syt1; not shown: GST, N-terminal, kept
Test: pull-down; GST fusion protein on beads incubated with cleared extracts of transfected HEK293T cells (1 mg at 1 mg/ml) for 4 h at 4 °C; lysis buffer 20 mM Tris-HCl pH 8.0, 137 mM NaCl, 2 mM EDTA, 1% Triton X-100; bound proteins detected by immunoblot for HA
Conditions: one partner purified

T1 sequence (P21579 81-422): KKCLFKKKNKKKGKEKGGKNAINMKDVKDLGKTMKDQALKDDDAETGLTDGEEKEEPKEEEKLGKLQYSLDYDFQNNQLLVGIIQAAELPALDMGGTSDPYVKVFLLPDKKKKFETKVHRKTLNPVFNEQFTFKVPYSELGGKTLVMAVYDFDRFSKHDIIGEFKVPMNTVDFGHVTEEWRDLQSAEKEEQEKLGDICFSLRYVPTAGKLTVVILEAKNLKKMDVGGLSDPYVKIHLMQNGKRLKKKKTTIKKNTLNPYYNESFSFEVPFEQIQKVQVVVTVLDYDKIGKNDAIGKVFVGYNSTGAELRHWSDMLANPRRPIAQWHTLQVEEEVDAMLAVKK

B1: HA-SGIP1α-mut (W771A/K781A) (natural protein, mouse, UniProt Q8VD37-6 1-854, looked up)
chain: MMEGLKKRTRKAFGIRKKEKDTDSTGSPDRDGMQGKKKAQKTQLLLTSCFWLRALSLTLSQQPSPHEPPYHSKAECAREGGKKASKKSNGAPNGFYAEIDWERYNSPELDEEGYSIRPEEPGSTKGKHFYSSSESEEEEESHKKFNIKIKPLQSKDVLKNAATVDELKASIGNIALSPSPVRKSPRRSPGAIKRNLSSEEVARPRRSTPTPELTSKKPLDDTLALAPLFGPPLESAFDEQKTEVLLDQPEIWGSGQPMNPSTESPELARPFPTGTPPPLPPKTVPATPPRTGSPLTVATGNDQAATEAKIEKLPSISDLDSIFGPVLSPKSVAVNTEEKWVHFSDASPEHVTPELTPREQVVTPPAASDIPADSPAPAPPGPTGSAGPPGPPGPRHVPSPLNLEEVQKKVAEQTFIKDDYLETLSSPKECGLGQRATPPPPPPPTYRTVVSSPGPGSGSGTGTTSGASSPARPATPLVPCSTTPPPPPPRPPSRPKLPPGKPGVGDVSRPFSPPIHSSSPPPIAPLARAESTSSISSTNSLSAATTPTVENEQPSLVWFDRGKFYLTFEGSSRGPSPLTMGAQDTLPVAAAFTETVNAYFKGADPSKCIVKITGEMVLSFPAGITRHFANNPSPAALTFRVVNSSRLEHVLPNPQLLCCDNTQNDANTKEFWVNMPNLMTHLKKVSEQKPQATYYNVDMLKYQVSAQGIQSTPLNLAVNWRCEPASTDLRIDYKYNTDAMSTAVALNNVQFLVPIDGGVTKLQAVLPPAVANAEQQRILWAIPDISQKSENGGVGSLLARFQLSEGPSKPSPLVVQFTSEGSTLSGCDIELVGAGYRFSLIKKRFAAGKYLADN
notes: numbers count on: SGIP1α (NM_001285852.1); Made by site-directed mutagenesis; also called HA-SGIP1α mutant W771A/K781A; W771A/K781A mutant; source: HEK293T, transfected, in lysate
- relative band intensity (SGIP1α = 1): 0.2 relative to SGIP1α
